Reference: publication PMC3042988, “The activation mechanism of Irga6, an interferon-inducible GTPase contributing to mouse resistance against Toxoplasma gondii” (BMC Biology, 2011)
Numbering of substitutions follows the chain as printed. Numbers in names are those of the source.

Biological target: the molecule itself
Assay: light scattering; self-association (oligomerisation) of 80 μM Irga6 with 10 mM GTP at 37°C; B1 buffer (50 mM Tris/HCl pH 7.4, 5 mM MgCl2)/2 mM DTT; conventional light scattering at 350 or 600 nm

B1: Irga6 (IIGP1), wild type, recombinant, GST cleaved off (enzyme, mouse)
chain: MGQLFSSPKSDENNDLPSSFTGYFKKFNTGRKIISQEILNLIELRMRKGNIQLTNSAISDALKEIDSSVLNVAVTGETGSGKSSFINTLRGIGNEEEGAAKTGVVEVTMERHPYKHPNIPNVVFWDLPGIGSTNFPPNTYLEKMKFYEYDFFIIISATRFKKNDIDIAKAISMMKKEFYFVRTKVDSDITNEADGKPQTFDKEKVLQDIRLNCVNTFRENGIAEPPIFLLSNKNVCHYDFPVLMDKLISDLPIYKRHNFMVSLPNITDSVIEKKRQFLKQRIWLEGFAADLVNIIPSLTFLLDSDLETLKKSMKFYRTVFGVDETSLQRLARDWEIEVDQVEAMIKSPAVFKPTDEETIQERLSRYIQEFCLANGYLLPKNSFLKEIFYLKYYFLDMVTEDAKTLLKEICL
notes: Irga6 (IIGP1), mouse immunity-related GTPase; also called WT Irga6; source: E. coli BL21, purified (glutathione Sepharose, GST cleaved off with thrombin, Superdex 75); not shown: GST, N-terminal, cleaved
**Q.** Does B1 bind?
**A.** binds

B2: Irga6-K169E (enzyme, mouse)
chain: B1 chain with K169E
notes: Irga6 (IIGP1), mouse; mutant made in pGEX-4T-2-Irga6; not shown: GST, N-terminal, cleaved
**Q.** Does B2 bind?
**A.** binds

B3: Irga6-K176E (enzyme, mouse)
chain: B1 chain with K176E
notes: as for B2
**Q.** Does B3 bind?
**A.** binds

B4: Irga6-R210E (enzyme, mouse)
chain: B1 chain with R210E
notes: as for B2
**Q.** Does B4 bind?
**A.** binds

B5: Irga6-K246E (enzyme, mouse)
chain: B1 chain with K246E
notes: as for B2
**Q.** Does B5 bind?
**A.** binds

B6: Irga6 with Lys101 mutated to glutamate (enzyme, mouse)
chain: B1 chain with K101E
notes: Irga6 (IIGP1), mouse; mutant made in pGEX-4T-2-Irga6; also called Lys101 mutant; K101E; source: E. coli BL21, purified (glutathione Sepharose, GST cleaved off with thrombin, Superdex 75); not shown: GST, N-terminal, cleaved
**Q.** Does B6 bind?
**A.** binds

B7: Irga6-E106D (enzyme, mouse)
chain: B1 chain with E106D
notes: Irga6 (IIGP1), mouse; mutant made in pGEX-4T-2-Irga6; source: E. coli BL21, purified (glutathione Sepharose, GST cleaved off with thrombin, Superdex 75); not shown: GST, N-terminal, cleaved
**Q.** Does B7 bind?
**A.** binds

B8: Irga6-E106Q (enzyme, mouse)
chain: B1 chain with E106Q
notes: as for B7
**Q.** Does B8 bind?
**A.** binds

B9: Irga6-E106A (enzyme, mouse)
chain: B1 chain with E106A
notes: as for B7
**Q.** Does B9 bind?
**A.** binds

B10: Irga6-E106N (enzyme, mouse)
chain: B1 chain with E106N
notes: as for B7
**Q.** Does B10 bind?
**A.** binds

B11: Irga6-D186N (enzyme, mouse)
chain: B1 chain with D186N
notes: Irga6 (IIGP1), mouse; mutant made in pGEX-4T-2-Irga6; also called G4-motif mutant; source: E. coli BL21, purified (glutathione Sepharose, GST cleaved off with thrombin, Superdex 75); not shown: GST, N-terminal, cleaved
**Q.** Does B11 bind?
**A.** binds

B12: Irga6-R31E-K32E (enzyme, mouse)
chain: B1 chain with R31E, K32E
notes: Irga6 (IIGP1), mouse; mutant made in pGEX-4T-2-Irga6; also called Arg31, Lys32 mutant; not shown: GST, N-terminal, cleaved
**Q.** Does B12 bind?
**A.** binds
